Data from publication PMC2962916.

Molecular target: T1, HMGD-M13A HMG box (D74-M13A) (Drosophila melanogaster, UniProt Q05783 1-74, M13A)
T1 sequence: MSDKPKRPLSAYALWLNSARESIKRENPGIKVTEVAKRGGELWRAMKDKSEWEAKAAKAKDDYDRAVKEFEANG
Assay: X-ray crystallography

B1: GCGATATCGC decamer duplex (dsDNA)
DNA 1: GCGATATCGC
DNA 2: GCGATATCGC
binding result: binds
